The data set can be described thus: soluble on expression in E. coli; label from the status in PepcDB or PDB records.
Take “MEFELEQHTPIIHFQARDAGATLRASEVKPKLDKFILTQIGKRFVKKTASTTEKNFIERGIEYFQNKDEEARRVYEEEKKKGNKGAKLELCLIPGQEGALNYKLSFKLSPDAKVQYFLPMSSNPKEIDKLKSLAQEKLGVQEVEMLPLTSYFANEDKAKSEPNIKHGDTPDQIKNKKRIFEENWQKVQLATFVNTPVEGVIRFQNAGLREEVNNLITNFFMLHNFGARQSKGFGSFIISLRDGKEEEDYFDTGCACYGYSFYIPAKTLEEALRKINYFYRSLRSGFNEYRGKNEIFYAKSGMHFYATKHNFEWDKKSIKGMLFDRDKDLEGKMKKEELFAFRDLLGLSSNERWQSYKTTITKECRNKKGEKFDRIKSPIQFKPICYSKYDYIVFFDLFPEKSGIPQLKGGKVVVKSSRHKGAVLELKIQEDIDLYNVFNEIFSELNFESQVGEYDSLTDAKEIFETMKDIYEQLNKNCHE”: the “soluble on expression in E. coli” value is recorded as “not soluble”. As to “MGSDKIHHHHHHMCRWLAYTGNPIPLETVLFRAKHSLIDQSLHSRMGATTTNGDGFGIGWYGQPDEVPFIYRCVSPAWNDRNLREAARAIRSPLFVAHVRSATDTPVQETNCHPFRRGRWLFAHNGLIRRYHTLRRDLMMRIDPGLFASIEGSTDSEVMFHLALTFGLEHDPLAALERMAGAIEDAGAHHRVDAPLNMTVCATDGEQVVAVRYSSEHDSRSLFHSTSFRHLHELYPHDPRIRAIGDDAFLVLSEPLVDLHDAWEKIPESTAIIARRGDIRQVPFQPRRST”, the “soluble on expression in E. coli” value is “not soluble”. As for “EISLNGYGRFGLQYVEDRGVGLEDTIISSRLRINIVGTTETDQGVTFGAKLRMQWDDGDAFAGTAGNAAQFWTSYNGVTVSVGNVDTAFDSVALTYDSEMGYEASSFGDAQSSFFAYNSKYDASGALDNYNGIAVTYSISGVNLYLSYVDPDQTVDSSLVTEEFGIAADWSNDMISLAAAYTTDAGGIVDNDIAFVGAAYKFNGGGGPKLAKMEKARGGGGDAGTVGLNWYDNGLSTAGDQVTLYGNYAFGATTVRAYVSDIDRAGADTAYGIGADYQFAEGVKVSGSVQSGFANETVADVGVRFDF”, the “soluble on expression in E. coli” value was “soluble”. As to “MGSDKIHHHHHHMIKNFVLDTNVLLYDPQAIFKFEENNIIIPITVIEEIDRFKKDMNETGRNARQLSRYLDEMRATGSLANGIALETGGTLRVEMYEEKFMKVLPPELREERGDNRILAVALRVKEQDEATPVIFVTKDTNLRIKSDALGLKAEDYESDKVDIEELYPGFTELEVSAEMVDRFHGQGWVDLTGYDLHPNQFVTLRDAANPSHTALGKYRADQKRITPIAKNGKDGVWSIHPRNREQAFAFDALLDDSIKLVTLVGKAGTGKTLLAIAAGLHKTAEENVYNRLLVSRPVFPMGRDLGFLPGDIEEKLTPWMQPIFDNVELLLSGHEAEKRHSKGYKELMAMGIMDIEPLTYIRGRSIPLQFMIVDEAQNLTPHEIKTIITRAGEGTKIVLTGDPYQIDNPYVDASSNGLTYVVERFKGVPIAGHVTMTKGERSELAELAANLL”, the “soluble on expression in E. coli” value is on record as “not soluble”. Regarding “MGSDKIHHHHHHMSTANIAPAIRIGVLGFGGLGQAAAKVLAGKREMKLVAVADQKGYAYAAAGLNFKDCIATYQSQGSVGYLEPVGSLGNNSIQDLIDSSQPVDGYFLALPNLPNDFIPSVARQFIQSGWRGVLVDAIKRTSAVEQLIAMKDELQAAGITYMTGCGATPGLLTAAAALAAQSYAEIHQVEITFGVGIANWEAYRATVREDIGHMPGYTVEAARAMTDAEVEALLDKTNGVLTLQNMEHADDVMLELAGIVERDRVTVGGVVDTRNPKKPLSTNVKVTGRTFEGKISTHTFTLGDETSMAANVCGPAFGYLKAGMQLHQRGIHGIFTAAEIMPQFVK”, the “soluble on expression in E. coli” value is “not soluble”. With “MGSDKIHHHHHHMLSRILEKYRENGIQGIVLALISRFPGVRAVCVYYVYRLPFDKLVRKQLSVGNLKVVQVKSDSMGDLIRVQDKPDIFGERFQMGHYGFVAYVNNDPVAYLWGQEGPVHVERRFGFEVPIKDNQVFYYDSYTIPEWRKSGVGRALIQESIDFFKNGLGKSELIAIIETGNLVSQKTYERMGFVREAMHIHLDIIGKKINKQLARMVTQ”, the “soluble on expression in E. coli” value is recorded as “not soluble”. In the case of “MGSDKIHHHHHHVTGSDTQLYPPMSTYLENHNIRYFNSFSAENLKSATPDLVVVGNAISRGNPDLEYALDQHMELISMPQLVRRELIGRHTSIVVAGTHGKTTTTSLVAWLLEAGGLLPGFLIGGIPENFGDGCRPSGLSEPGFFVTEGDEYDSAFFDKRSKFLHYRPDIAIINNVEFDHADIFDSLDDIKKSFRLLVNLVPSNGLLIVNADDPNSMEVSAKAFCRVETFGLNGNAEWTAADIATDTDGTSFTVVRDSEAIGRVKVPLFGNYNVMNALAATAAAIRAGVSFESVTRGLCSFKRPKRRMELVGEYAGGITLIEDFAHHPTAIRLTLGAIAEHYPGRRIIACFEPRSNTTSRNIFQHELSECFGDAAIVVLGKVNRPERYAPEERLDAALLCRELKANGKRVFAAGSENYPEDIVRFIEAEQQPGDVVVLLSNGSFSGLKEMLAESFQKNS” it was “not soluble”; in that of “MDIQLVADGLQFPEGPIAMADGSVILTEIQGQRLTRVWPDGRKETVAETGGGPNGAAIGPDGAIYVTNNGGSFQFFEANGLNIPGPTPPTHTGGAIQRVDLKTGAITTLYTECDGKPLVGPNDLVFDKQGGFWFTDHGCSTPDGRKYGALYYALPDGSKITRWRDHFVSPNGVGLSPDEKTVYMADTMLGRLWSFDVASPGVLADAVPLLPGNVVCNLPGYQLLDSLAVEADGKVCVATIINGGITAFAPDGSTEHYAFPDVIVTNICFGGADMRDAWITASGTGKLYKARWPRPGLKLNFNGLEHHHHHH”, “soluble”; in that of “MDSKAIAERIKKLQAQQEHVRIGGKGTPRRKKKVIHKTAAADDKKLQSNLKKLSVTNIPGIEEVNMIKDDGTVIHFNNPKVQTSVPANTFSVTGSADNKQITEMLPGILNQLGPESLTHLKKLANNVTKLGPDGKGEDEDVPELVGDFDAASKNETKADEQ”, “soluble”. In the case of “EKQNEIQKKKARRHQLAMDYPEFISTFTLYLGAGMPARRAWFQIASVYRQQENTRYVYEEMVYTMREMQRGTPESECYEHFGMRCGLPVYRKFAVMLSQNLRKGTKGLAELLQREAAGAFEERKAAARKLGEETSTR” it was “not soluble”; in that of “MASDVTVNVSAEKQVIRGFGGMNHPAWAGDLTAAQRETAFGNGQNQLGFSILRIHVDENRNNWYKEVETAKSAVKHGAIVFASPWNPPSDMVETFNRNGDTSAKRLKYNKYAAYAQHLNDFVTFMKNNGVNLYAISVQNEPDYAHEWTWWTPQEILRFMRENAGSINARVIAPESFQYLKNLSDPILNDPQALANMDILGTHLYGTQVSQFPYPLFKQKGAGKDLWMTEVYYPNSDTNSADRWPEALDVSQHIHNAMVEGDFQAYVWWYIRRSYGPMKEDGTISKRGYNMAHFSKFVRPGYVRIDATKNPNANVYVSAYKGDNKVVIVAINKSNTGVNQNFVLQNGSASNVSRWITSSSSNLQPGTNLTVSGNHFWAHLPAQSVTTFVVNRLEHHHHHHHH”, “soluble”.

As for “MAHHHHHHMDVSQFLKSFKKNVAAKSKRSSSVRQSDEAANSGAEEDVTEIFHSASDSEADGEAEDGEVILGGRADKMAGKRYTRNMDHSKRNREFAALKVVETNSVPAVEAGRFQRQRAALARQATDARKPPRTEMIASVRAELLRQREKLRGSNALDSANQLDASVQKMETTMIEVEDLLQASAPTAATSASVLDFLPAAPLPAPRQATLTTASRAASIAVALSEPQPPSSSVTNGRAGTPTVNDPALEEPPKLPKKRTKFELAMAMAHDEVAS”, the “soluble on expression in E. coli” value is given as “not soluble”. With “AAHQLTIVHLEARDIDRPNPQLEIAPKEGTPIEGVLYQLYQLKSTEDGDLLAHWNSLTITELKKQAQQVFEATTNQQGKATFNQLPDGIYYGLAVKAGEKNRNVSAFLVDLSEDKVIYPKIIWSTGELDLLKVGVDGDTKKPLAGVVFELYEKNGRTPIRVKNGVHSQDIDAAKHLETDSSGHIRISGLIHGDYVLKEIETQSGYQIGQAETAVTIEKSKTVTVTIENKKVPTPKVPSR”, the “soluble on expression in E. coli” value is on record as “soluble”. For “MAGDPMLKQLKKVIITTAIALATLCSTQAFAETNPYLLMQKTADKLFTNIKNNQTKIKANPEYLRDIVREDLMSYVHIRYAGQLVLGKSLSSVSEPQREKFFNAFGKFIEQAYAQILTQYEDQQIQIENEKPLGDKSIVSIRVNVLSSGSTPPIKLDFKWRKNSKTGEWQAYDMAAEGVSMVATKQNEWSNILRQQGIDALTNQVEKAAKQPITLNKLEHHHHHH”, the “soluble on expression in E. coli” value is “soluble”. Under “MGSDKIHHHHHHMDLENKFSYHFLEGLTLTEDGILTQGNEQVYIPQKELGVLIVLLESAGHVVLKDMIIESVWKNIIVSDESLTRCIYSLRCIFEKIGYDRCIETIYRKGYRFSGQVFKTKINEDNTSDYSIAIFPFTTSLNTLDPLILNQELVQIISNKKIDGLYTYPMAATNFCNDHISQNSFLSRFKPDYFVTGRINQNNAVNTLYIELIDAKNLFLIASNHLPVDELHNTSQFIIDNILQTVHKPERSVRLAKQDQGYKNHYLSDEMLAGKKELYDFTPESIYRAMTIFDRLQNKSDIQTLKTECYCLLAECHMSLALHGKSELELAAQKALELLDYVSDITTVDGKILAIMGLITGLSGQAKVSHILFEQAKIHSTDIASLYYYRALVHFHNEKIEEARICIDKSLQLEPRRRKAVVIKECVDMYVPNPLKNNIKLYYKETESESHRVIIDNILKLKQLTRICMR” stands “not soluble”; under “MGSDKIHHHHHHMLMELTTTSHALKEWAVAVNALESGKTIMLLRKGGIHERNGNFQVAHKQILLYPTYEHQQAFMLKPEYANRVYPVTSGWHPETVRIGSWAEITDILPISDEFLVNALLPFHIWNEHFISDRLKWKPRQPLYILLLRTYKLTQDQEIPYHPKYGGCKSWIDLDQSINLQETTPALSDFAYTQLVQTIRGIVGDKMARKIDMLNYNSTFS”, “not soluble”. Turning to “MTPRKPAVKKEVKEEEPGAPGKEGAAEGPLDPSGYNPAKNNYHPVEDACWKPGQKVPYLAVARTFEKIEEVSARLRMVETLSNLLRSVVALSPPDLLPVLYLSLNHLGPPQQGLELGVGDGVLLKAVAQATGRQLESVRAEAAEKGDVGLVAENSRSTQRLMLPPPPLTASGVFSKFRDIARLTGSASTAKKIDIIKGLFVACRHSEARFIARSLSGRLRLGLAEQSVLAALSQAVSLTPPGQEFPPAMVDAGKGKTAEARKTWLEEQGMILKQTFCEVPDLDRIIPVLLEHGLERLPEHCKLSPGIPLKPMLAHPTRGISEVLKRFEEAAFTCEYKYDGQRAQIHALEGGEVKIFSRNQEDNTGKYPDIISRIPKIKLPSVTSFILDTEAVAWDREKKQIQPFQVLTTRKRKEVDASEIQVQVCLYAFDLIYLNGESLVREPLSRRRQLLRENFVETEGEFVFATSLDTKDIEQIAEFLEQSVKDSCEGLMVKTLDVDATYEIAKRSHNWLKLKKDYLDGVGDTLDLVVIGAYLGRGKRAGRYGGFLLASYDEDSEELQAICKLGTGFSDEELEEHHQSLKALVLPSPRPYVRIDGAVIPDHWLDPSAVWEVKCADLSLSPIYPAARGLVDSDKGISLRFPRFIRVREDKQPEQATTSAQVACLYRKQSQIQNQQGEDSGSDPEDTY”, the “soluble on expression in E. coli” value is given as “soluble”. “MGHHHHHHSHGTRVTLRFQMKMFESADSTATRSGQDLWAEICSCLPNPEQEDGANNAFSDSFVDSCPEGEGQREVADFAVQPAVKPWAPLQDSEVYLASLEKKLRRIKGLNQEVTSKDMLRTLAQAKKECWDRFLQEKLASEFFVDGLDSDESTLEHFKRWLQPDKVAVSTEEVQYLIPPESQVEKPVAEDEPAAGDKPAAAEQ”: the “soluble on expression in E. coli” value is reported as “soluble”.

Regarding “MPPYTVVYFPVRGRCAALRMLLADQGQSWKEEVVTVETWQEGSLKASCLYGQLPAFQDGDLTLYQSNTILRHLGRTLGLYGKDQQEAALVDMVNDGVEDLRCKYISLIYTNYEAGKDDYVKALPGQLKPFETLLSQNQGGKTFIVGDQISFADYNLLDLLLIHEVLAPGCLDAFPLLSAYVGRLSARPKLKAFLASPEYVNLPINGNGKQ”, the “soluble on expression in E. coli” value is on record as “soluble”.
